Source: US20210206856A1 (PANDION OPERATIONS, published 2021)
Where a chain is given by its changes, count along the chain named.

T1: human MAdCAM expressed on cells (human, UniProt Q13477 19-382)
T1 construct: whole, on cells; also called MADCAM1
T1 sequence (looked up): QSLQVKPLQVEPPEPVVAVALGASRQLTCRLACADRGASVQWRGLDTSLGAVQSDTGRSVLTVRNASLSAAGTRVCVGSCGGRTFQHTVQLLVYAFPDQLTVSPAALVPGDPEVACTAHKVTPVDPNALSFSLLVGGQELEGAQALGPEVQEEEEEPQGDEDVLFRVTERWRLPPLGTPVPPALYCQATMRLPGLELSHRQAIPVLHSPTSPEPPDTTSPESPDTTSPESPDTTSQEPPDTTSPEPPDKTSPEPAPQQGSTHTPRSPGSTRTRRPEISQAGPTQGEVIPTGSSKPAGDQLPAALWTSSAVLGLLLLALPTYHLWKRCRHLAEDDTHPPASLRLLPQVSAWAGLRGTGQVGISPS

T2: mouse MAdCAM expressed on cells (mouse, UniProt Q61826 22-405)
T2 construct: whole, on cells
T2 sequence (looked up): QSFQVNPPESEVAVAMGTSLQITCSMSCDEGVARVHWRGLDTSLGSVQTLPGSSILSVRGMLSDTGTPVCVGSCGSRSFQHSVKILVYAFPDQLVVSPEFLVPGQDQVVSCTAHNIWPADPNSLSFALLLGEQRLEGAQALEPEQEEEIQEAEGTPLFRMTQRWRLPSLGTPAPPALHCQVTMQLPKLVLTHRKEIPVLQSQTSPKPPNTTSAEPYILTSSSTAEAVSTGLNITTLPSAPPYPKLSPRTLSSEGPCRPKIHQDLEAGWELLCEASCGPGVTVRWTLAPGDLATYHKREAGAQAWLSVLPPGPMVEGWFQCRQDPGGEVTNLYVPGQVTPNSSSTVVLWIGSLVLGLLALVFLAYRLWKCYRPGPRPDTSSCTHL

B1: MAdCAM Antibody Table 2 Clone 10 (antibody, human IgG1, V domains shown)
VH: EVQLLESGGGLVQPGGSLRLSCAASGFMFGDYAMHWVRQAPGKGLEWVSAISGSGGSTYYADSVKGRFTISRDNSKNTLYLQMNSLRAEDTAVYYCAKDLVVAGIWYFDLWGRGTLVTVSS
VL: DIQMTQSPSSLSASVGDRVTITCRASQGISNNLNWYQQKPGKAPKLLIYDASSLESGVPSRFSGSGSGTDFTLTISSLQPEDFATYYCQQTHSFPSTFGQGTKLEIK
B2: MAdCAM Antibody Table 2 Clone 1 (antibody, human IgG1, V domains shown)
VH: EVQLLESGGGLVQPGGSLRLSCAASGFTFSSYGMHWVRQAPGKGLEWVAVISDDGSDKYYADSVKGRFTISRDNSKNTLYLQMNSLRAEDTAVYYCTTSKYYYYYGMDVWGQGTTVTVSS
VL: DIQMTQSPSSLSASVGDRVTITCQASQDISKSLNWYQQKPGKAPKLLIYAASSLQSGVPSRFSGSGSGTDFTLTISSLQPEDFATYYCQQGYSTPLTFGGGTKVEIK
B3: MAdCAM Antibody Table 2 Clone 11 (antibody, human IgG1, V domains shown)
VH: EVQLLESGGGLVQPGGSLRLSCAASGFTFSDYYMNWVRQAPGKGLEWVSVIGESGGSTYYADSVKGRFTISRDNSKNTLYLQMNSLRAEDTAVYYCAADPVSRWPKHGGGDYWGQGTLVTVSS
VL: B2 VL with Q24R, D28G, K31S, N34A, S53T, G91S, L96W, G100Q
B4: MAdCAM Antibody Table 2 Clone 16 (antibody, human IgG1, V domains shown)
VH: EVQLLESGGGLVQPGGSLRLSCAASGFTFDDYAMHWVRQAPGKGLEWVSYIDASGTTIYYADSVKGRFTISRDNSKNTLYLQMNSLRAEDTAVYYCAKDQAAAGYWYFDLWGRGTLVTVSS
VL: B2 VL with K31N, S32Y, A50K, S53T, Q55E, G91S, L96I, G100Q, K103R, V104L
B5: MAdCAM Antibody Table 2 Clone 12 (antibody, human IgG1, V domains shown)
VH: QVQLVQSGAEVKKPGASVKVSCKASGYTLTTWYMYWVRQAPGQGLEWMGWINPNRGATNYAQKFQGRVTMTRDTSTSTVYMELSSLRSEDTAVYYCAKGDLWGAMDVWGQGTLVTVSS
VL: B2 VL with Q24R, Q27D, D28N, S30G, K31S, S32W, N34A, L96P, G100Q
B6: MAdCAM Antibody Table 2 Clone 8 (antibody, human IgG1, V domains shown)
VH: QVQLVQSGAEVKKPGASVKVSCKASGYTFTGYHIHWVRQAPGQGLEWMGIINPSGGSTIYAQKFQGRVTMTRDTSTSTVYMELSSLRSEDTAVYYCAKDWSSWYLGPFDYWGQGTLVTVSS
VL: B2 VL with Q24R, D28N, K31S, G91S, S93T, L96Y, G100Q
B7: MAdCAM Antibody Table 2 Clone 25 (antibody, human IgG1, V domains shown)
VH: EVQLLESGGGLVQPGGSLRLSCAASGFTFSNAWMSWVRQAPGKGLEWVSTIVGNGGATYYADSVKGRFTISRDNSKNTLYLQMNSLRAEDTAVYYCARDNPLRWQGMDVWGQGTLVTVSS
VL: B2 VL with Q24R, K31N, S32Y, G91S, T94I, L96P, G100P, E105D
B8: MAdCAM Antibody Table 2 Clone 33 (antibody, human IgG1, V domains shown)
VH: B5 VH with L113T
VL: B2 VL with Q24R, Q27D, D28N, S30G, K31S, S32W, N34A, L96P, G100Q
B9: MAdCAM Antibody Table 2 Clone 18 (antibody, human IgG1, V domains shown)
VH: QVQLVQSGAEVKKPGSSVKVSCKASGYTFTNYYMHWVRQAPGQGLEWMGGIIPIVDRVKYAQKFQGRVTITADESTSTAYMELSSLRSEDTAVYYCAKGRYTVNYYYGMDVWGQGTTVTVSS
VL: DIQMTQSPSSLSASVGDRVTITCQANQDISNYLNWYQQKPGKAPKLLIYRASKLEAGVPSRFSGSGSGTDFTLTISSLQPEDFATYYCQQSSEIPYSFGQGTKLEIK
B10: MAdCAM Antibody Table 2 Clone 19 (antibody, human IgG1, V domains shown)
VH: EVQLLESGGGLVQPGGSLRLSCAASGFTFEDYAMHWVRQAPGKGLEWVSYLNSDGGSTSYADSVKGRFTISRDNSKNTLYLQMNSLRAEDTAVYYCAKDYCTNGVCAFDYWGQGTLVTVSS
VL: DIQMTQSPSSLSASVGDRVTITCRASQSISTYLNWYQQKPGKAPKLLIYDASNLETGVPSRFSGSGSGTDFTLTISSLQPEDFATYYCQQSYTIPITFGQGTRLEIK
B11: MAdCAM Antibody Table 2 Clone 30 (antibody, human IgG1, V domains shown)
VH: EVQLLESGGGLVQPGGSLRLSCAASGFTFSSYAMHWVRQAPGKGLEWVSGISGSGGSAYYADSVKGRFTISRDNSKNTLYLQMNSLRAEDTAVYYCATSQAPVDYYYYGMDVWGQGTTVTVSS
VL: B10 VL with T31S, Y32W, N34A, D50A, E55Q, T56R, T93S, R103K, L104V
B12: MAdCAM Antibody Table 2 Clone 34 (antibody, human IgG1, V domains shown)
VH: QVQLVQSGAEVKKPGASVKVSCKASGYTFTGYYIHWVRQAPGQGLEWMGWMNPNSGNTGYAQKFQGRVTMTRDTSTSTVYMELSSLRSEDTAVYYCARDPGFLGYCSGGSCYDGWFDPWGQGTLVTVSS
VL: B10 VL with T31S, N34H, D50A, N53S, E55Q, T56S, I94A, I96Y, R103K
B13: MAdCAM Antibody Table 2 Clone 26 (antibody, V domains shown)
VH: EVQLLESGGGLVQPGGSLRLSCAASGFTFSSYAMSWVRQAPGKGLEWVSYISSSSTYTNYADSVKGRFTISRDNSKNTLYLQMNSLRAEDTAVYYCARANSSSWYDWYFDLWGQGTLVTVSS
VL: not shown
B14: MAdCAM Antibody Table 2 Clone 7 (antibody, human IgG1, V domains shown)
VH: EVQLLESGGGLVQPGGSLRLSCAASGFTFSDYQMSWVRQAPGKGLEWVAIISHADGGFKDYADSVKGRFTISRDNSKNTLYLQMNSLRAEDTAVYYCAKPYSSGWSAVYYFDYWGQGTLVTVSS
VL: DIQMTQSPSSLSASVGDRVTITCRASRGITNDLGWYQQKPGKAPKLLIYAASTLQSGVPSRFSGSGSGTDFTLTISSLQPEDFATYYCQQAYSFPWTFGQGTKVEIK
B15: MAdCAM Antibody Table 2 Clone 13 (antibody, human IgG1, V domains shown)
VH: QVQLVQSGAEVKKPGASVKVSCKASGYTFTTYYMHWVRQAPGQGLEWMGGFDPEDGETIYAQKFQGRVTMTRDTSTSTVYMELSSLRSEDTAVYYCARHAVAGAVGAGYYYYGMDVWGQGTMVTVSS
VL: B14 VL with R27E, G28S, T30S, D32W, G34A, A91S, F94V, W96F, Q100P, E105D
B16: MAdCAM Antibody Table 2 Clone 15 (antibody, human IgG1, V domains shown)
VH: QVQLVQSGAEVKKPGASVKVSCKASGYTFTGYYMHWVRQAPGQGLEWMGWIGPNSGDTNYAQKFQGRVTMTRDTSTSTVYMELSSLRSEDTAVYYCARDLDHNWYFDLWGRGTLVTVSS
VL: DIVMTQSPLSLPVTPGEPASISCRSSQSLLHSNGYNYLDWYLQKPGQSPQLLIYSSSNRAPGVPDRFSGSGSGTDFTLKISRVEAEDVGVYYCMQALHIPLTFGGGTKVEIK
B17: MAdCAM Antibody Table 2 Clone 21 (antibody, human IgG1, V domains shown)
VH: EVQLVESGGGLVKPGGSLRLSCAASGFTFSSYWMSWVRQAPGKGLEWVSYISGDSGYTNYAAPVKGRFTISRDDSKNTLYLQMNSLKTEDTAVYYCARANSSGWYDWYFDLWGRGTLVTVSS
VL: not shown
B18: MAdCAM Antibody Table 2 Clone 32 (antibody, human IgG1, V domains shown)
VH: B5 VH
VL: B2 VL with Q24R, Q27D, D28N, S30G, K31S, S32W, N34A, L96P, G100Q
B19: MAdCAM Antibody Table 2 Clone 9 (antibody, human IgG1, V domains shown)
VH: QVQLVQSGAEVKKPGASVKVSCKASGYTFTSYYMHWVRQAPGQGLEWMGIINHSGGSTSYAQKFQGRVTMTRDTSTSTVYMELSSLRSEDTAVYYCARPYSGWYFAFDIWGQGTLVTVSS
VL: not shown
B20: MAdCAM Antibody Table 2 Clone 35 (antibody, human IgG1, V domains shown)
VH: B12 VH with C106S, C111S
VL: B10 VL with T31S, N34H, D50A, N53S, E55Q, T56S, I94A, I96Y, R103K
B21: MAdCAM Antibody Table 2 Clone 27 (antibody, V domains shown)
VH: B13 VH with A33Q
VL: not shown

What follows are binders tested against T1, human MAdCAM expressed on cells (assay: cell binding).

binding result	Binder
binds	B1
binds	B2
binds	B3
binds	B4
binds	B5
binds	B6
binds	B7
binds	B8
binds	B9
binds	B10
binds	B11
binds	B12
binds	B13
binds	B14
binds	B15
binds	B16
binds	B17

The binders below were run against T2, mouse MAdCAM expressed on cells (assay: cell binding).

binding result	Binder
binds	B1
binds	B2
binds	B3
no binding	B4
no binding	B18
no binding	B5
binds	B6
no binding	B7
no binding	B8
no binding	B9
no binding	B19
no binding	B10
binds	B11
no binding	B12
no binding	B20
no binding	B13
no binding	B21
binds	B14
no binding	B15
no binding	B16
no binding	B17
